Key:
[1] = molecular target: HLA-A*01:01/hβ2m complex (empty, peptide-free or peptide-receptive) (human); test: NMR titration
[2] = molecular target: HLA-A*01:01/hβ2m complex (empty, peptide-free or peptide-receptive) (human); test: fluorescence polarisation
[3] = molecular target: HLA-A*01:01/hβ2m complex (empty, peptide-free or peptide-receptive) (human); test: differential scanning fluorimetry

half-life of peptide association (t1/2) [1]: < 3.7 h | IC50 [2]: 260 nM | reduction in the population of empty HLA-A*01:01 after 0.5 h with peptide [3]: 50%
Binder: ILDTAGKEEY [NRAS_(55-64) Q61K peptide (…)]
